Substrate in this series: C[C@@H](O)C(=O)O
Put plainly: purified protein. Conditions: DCIP as co-substrate, D-lactate 5-300 µM, pH of the kinetic assay not given (optimum pH 8.75).

Among the data in paper PMC7393112 are Km, kcat and kcat/Km values, retold here.

B1: OsD-LDH2 (Oryza sativa Japonica Group) (protein)
chain: MARRAAAGLLRRHLGPLAAGETLQARGMYPKQYGAANHAFSRFYSIQGQQRSLYGFRTNVETDDTQQSARMNFEVQKRSFSSAAAHVQRNPAYSVLNSDDVSYFKSILGDSGVVQDEDRVSVANMDWMGKYKGSSQLLLLPKSTAEVSKILSYCNSRRLAVVPQGGNTGLVGGSVPVYDEVIISLGGMDKIITFDNVNGILTCEAGCVLENLSSYVENKGFIMPLDLGAKGSCHIGGNISTNAGGLRFIRYGSLHGSVLGLEVVLADGTVLDMLTTLRKDNTGYDLKHLFIGSEGSLGIVTKIAILTPAKLPSTNVAFLSCNDYISCQKLLLAARRSLGEILSAFEFMDRHCINLAMKYLEGVHNPLPVSPFNFYVLIETTGSDESYDKAKLEAFLLRSMEDGLVADGVIAQDISQASNFWRIREGISEASVKVGAVYKYDLSIPVEKLYDIVEEMRSRVGDMGQVLGYGHLGDGNLHLNILSTKYSDKMLAQIEPFVYEWTSKQRGSISAEHGLGLMKAEKIHYSKSSEAVQLMASIKKLLDPNSILNPYKVLPQSVL
Consider B1, for which the Km (usually the substrate concentration at which the rate is half of its maximum) is 8.045 ± 1.7 µM; the kcat (usually the number of substrate molecules converted per active site and unit of time at saturation) came out at 3.27 s⁻¹; the kcat/Km (in general, the second-order rate constant that governs catalysis at low substrate concentration) was 407000 M⁻¹ s⁻¹.
